Assay results published in patent US20100181197A1, “ISOELECTRIC POINT MARKERS” (GE HEALTHCARE BIO-SCIENCES AB, priority 2007, published 2010).
Ends that are not written are not given here.

How the values were obtained:
[1] = Experimentally determined pI-values of tryptic peptides focused in IPG strips; assay type: physicochemical; conditions: tryptic yeast peptides focused in IPG strips 3.7-4.05
Description: Both methods are based on the equilibria of amino acid residues participating in reactions with water and can be described with one pK-value for each type of residue, which is independent of the nature of neighbouring amino acids. The consequence of this assumption is that for large groups of tryptic peptides, the same pI-value will be predicted. […] The approaches described above will result in the same pI-value for all these peptides. The value predicted at the Expasy server is 4.53, which can be compared with the value resulting from the experimental distribution, i.e. 4.49±0.075.
It would be expected that the presence of two negatively charged amino acid residues at limited distances from each other along the amino acid chain should result in an increase of the pK-values involved and a concomitant increase of the pI-value, while two positively charged residues at limited distances from each other along the peptide chain could be expected to give reversed effect, i.e. a decrease in pK-values and a concomitant decrease of the pI-value. In reality, no such effects can be detected. […] In the peptides, C-terminal amino acids are either lysine or arginine. […] This is explained by the presence of two oppositely charged amino acid residues in the chain, thereby favouring configurations with a short distance between the two residues. As a consequence, pK-values are affected also when these residues are separated by up to 5 amino acid residues. On the other hand, the presence of two equally charged residues favours configurations with the longest possible distance between the charged groups and for neighbouring charged residues, the average distance becomes too long to generate a detectable effect on pK and pI values.
The C-terminal, which in tryptic digests is either lysine or arginine contains both a positively charged group and a negatively charged group, gives notable effects on resulting pI-values only when the neighbouring group is charged. At larger distances, for peptides having two internal glutamic acid residues (no glutamic acid in position 1-6), the C-terminal amino acid being either lysine or arginine, the effect on pI is negligible (Table 2).
3.1 Yeast proteins (Saccharomyces cerevisiae, type II (1 gram) were dissolved in a 10 ml solution containing 50 mM Tris-HCl pH 8.0, 6 M urea and 10 mM DDT. The solution was allowed to stand for 1 hour at 37° C. and then allowed to react with iodoacetamide (addition of 250 μl 0.8 M iodoacetamide solution) for 30 minutes at room temperature to […] the cysteine groups. The sample was then sonicated 5 times for 30 seconds followed by dilution of the sample in 50 mM Tris-HCl, 1 mM CaCl2 (1 ml sample to 9 ml Tris-Cl buffer solution). 2.5 ml of diluted sample was added to a container with 250 μg trypsin (4 containers for 10 ml diluted sample) and digestion was allowed to proceed for 2 hours at 37° C. The sample was then concentrated by evaporation to 2 ml. 1 ml of digested concentrated sample was then added to a NAP-10 column pre-equilibrated with 15 ml 8 M urea solution and the sample was eluted with 1.5 ml urea. After a protein determination the sample was aliquoted and frozen until used.
A total of 6612 tryptic yeast peptides have been identified after focusing in IPG strips 3.7-4.05. Sixteen of these peptides have a structure (Table 5) which should give them a pI in close agreement with the pI of the marker. The average value found for these peptides 3.80±0.03 is in reasonable agreement with the value found for the pI marker.

[2] = Isoelectric focusing of CY5-labelled pI markers in IPG strips, fluorescence scan; assay type: physicochemical; conditions: for pI (exp) pI/marker: marker reacted at C-terminal lysine with CY5, experimental pI
Experimental: The amino acid sequences of the isoelectric point markers were selected essentially as described in Shimura, K. et al, Electrophoresis, (2000), 21, 603-610. The markers contain a minimum of two […] groups with pK values in the vicinity of the pI value of the corresponding marker. The pH scale is a pH scale defined for isoelectric focussing in 8M urea and 20° C. as described in Bjellqvist, B. et al, Electrophoresis, (1993), 14, 1357-1365, Bjellqvist, B. et al, Electrophoresis, (1994), 15, 529-539.
3.2 Sample application was performed with polyacrylamide gel pieces, cast as 1 mm thick gel of the size 260×110 mm on a GelBond PAGE film. In addition to acrylamide (38.8 gram/litre) and bisacrylamide (1.2 gram/litre) the gel polymerising solution contained 15.0 mM Immobiline pK 3.6 and 5.9 mM Immobiline pK 9.3. The polymerisation initiators used were ammonium persulfate and tetramethyl ethylenediamine. The gel was extensively washed in water (10 wash cycles of 20 minutes using 200 ml water/wash). To the last wash was added 2% glycerol. The gel was then dried and cut to generate a number sample application gel pieces of the size 43×7 mm.
Four, 22 cm long IPG strips were re-swollen overnight in 250 μl 8 M urea solution containing 1% Pharmalyte pH 2.5-5 and a trace of bromophenol blue. In parallel, four sample application gel pieces were re-swollen in 315 μl sample solution containing 300 μg yeast protein in 8 M urea to which 0.3 μg of the pI marker had been added.
The four re-swollen IPG strips were positioned in a ceramic manifold in the IPGPHOR™ 3 with the GelBond film downwards. At the basic/cathodic ends of the IPG strips, paper electrode wicks (10×7×1 mm) to which 150 ul water had been added, were positioned on top of the IPG strips with an overlap of 2 mm to establish electric contact. At the anodic end, the wetted electrode wick was positioned 39 mm away from the acidic end of the IPG strip. The re-swollen acidic sample application gel was positioned with the gel side down as a bridge between the paper electrode wick and the IPG strip to give contact both with the paper wick and with the IPG strip through a 2 mm overlap region. The anodic and cathodic electrodes were finally positioned on the anodic and cathodic paper electrode wicks respectively and a light pressure was applied on the back of the sample application gels at the over lap regions with the paper electrode wicks and the IPG strips respectively.
3.3 Focusing was then performed at 20° C. with maximum current set to 50 uA/strip with the following voltage settings:
The focusing experiment was performed with current limitations from 1000V onwards; 2500 V was reached after 5 hours and the voltage only changed slowly to reach a final voltage of 2715 V after 52 hours 23 minutes and a total volthourproduct of 129 kilovolthours.
Upon completion, the gel strips were transferred to a TYPHOON™ 9400 imager and scanned in the fluorescence mode at 633 nm (FIG. 3). From the focusing positions the pI-value for the marker was determined to be 3.86.
Focusing was performed in IPG strips pH 3.4-4.9 containing a non-linear pH-gradient adjusted to give an even distribution of peptides in the focused strip. The experiment was run essentially as described in Example 3. For sample application, the same type of polyacrylamide gel applicator was used, this time re-swollen in an 8M urea solution containing 30 μg of the digested yeast proteins and 0.3 μg of each of the four pI-markers. Focusing was continued for 47 hours 45 minutes and the total volthourproduct was 207 kVh.

Substance	pI-value [1]	pI (exp) pI/marker [2]	also measured
DADLLNSVVVQR [tryptic yeast peptide identified after focusing in IPG strips 3.7-4.05]	3.775		
DCDSLSSLVTR [tryptic yeast peptide identified after focusing in IPG strips 3.7-4.05]	3.765		
DGDQVVFMVSQK [tryptic yeast peptide identified after focusing in IPG strips 3.7-4.05]	3.760		
DGDYNLVGSK [tryptic yeast peptide identified after focusing in IPG strips 3.7-4.05]	3.746		
DIDILVNNAGK [tryptic yeast peptide identified after focusing in IPG strips 3.7-4.05]	3.828		
DIDNGYTLSLMYK [tryptic yeast peptide identified after focusing in IPG strips 3.7-4.05]	3.800		
DLDAAQGTLK [tryptic yeast peptide identified after focusing in IPG strips 3.7-4.05]	3.815		
DLDAVNGSNGSK [tryptic yeast peptide identified after focusing in IPG strips 3.7-4.05]	3.790		
DLDLPTQQILVAR [tryptic yeast peptide identified after focusing in IPG strips 3.7-4.05]	3.830		
DNDVQLAATK [tryptic yeast peptide identified after focusing in IPG strips 3.7-4.05]	3.800		
DQDSAVVSSNIK [tryptic yeast peptide identified after focusing in IPG strips 3.7-4.05]	3.823		
DSDVTWLYGPIVR [tryptic yeast peptide identified after focusing in IPG strips 3.7-4.05]	3.800		
DSDYIPVVVVGNK [tryptic yeast peptide identified after focusing in IPG strips 3.7-4.05]	3.825		
DTDMVLIPAGVPR [tryptic yeast peptide identified after focusing in IPG strips 3.7-4.05]	3.808		
DTDYVPIVVVGNK [tryptic yeast peptide identified after focusing in IPG strips 3.7-4.05]	3.840		
DVDLVNAAR [tryptic yeast peptide identified after focusing in IPG strips 3.7-4.05]	3.800		
H2N-Asp-Gly-Asp-Gly-Lys(CY™5)-COOH (H-DGDGK(Cy5)-OH) [Compound xvii]		3.86	pI-value for the marker from focusing positions ([2]; linear IPG pH 3.70-4.05, 22 cm strip, 8 M urea, 20° C., 129 kVh, 0.3 μg/strip): 3.86
H2N-Glu-Gly-Asp-Gly-Lys(CY™5)-COOH (H-EGDGK(Cy5)-OH) [Compound xxii]		4.18	
H2N-Glu-Gly-Glu-Gly-Lys(CY™5)-COOH (H-EGEGK(Cy5)-OH) [xxiii]		4.28	
H2N-Gly-Asp-Gly-Gly-Asp-Gly-Gly-Lys(CY™5)-COOH [xviii]		4.02	
H2N-Gly-Glu-Glu-Gly-Gly-Lys(CY™5)-COOH [Compound xx]		4.44	
H2N-Gly-Glu-Gly-Gly-Glu-Gly-Glu-Lys(CY™5)-COOH (H-GEGGEGEK(Cy5)-OH) [xix]		4.22	
H2N-Gly-Gly-Glu-Gly-Gly-Glu-Gly-Lys(CY™5)-COOH (H-GGEGGEGK(Cy5)-OH) [xxiv]		4.42	
H2N-Gly-Gly-Gly-Gly-Glu-Glu-Lys(CY™5)-COOH (H-GGGGEEK(Cy5)-OH) [Compound xxi]		4.56	
